Kd data for four molecules are collected here from publication PMC7772510.

Positions count from the first letter of the chain named. Names and notes keep the numbering of the source.

In test [1] the target is complement fragment iC3b (UniProt P01024). As to the kind of experiment: ELISA. Background: An ELISA detects its analyte on a solid surface through an enzyme-linked reagent.
For test [2] the target is unchanged. As to the kind of experiment: SPR. (In general: In SPR one partner is held on a chip, and binding of the other changes the refractive index at the surface.)

B1: GST-αX I-domain (domain or fragment)
chain: RQEQDIVFLIDGSGSISSRNFATMMNFVRAVISQFQRPSTQFSLMQFSNKFQTHFTFEEFRRSSNPLSLLASVHQLQGFTYTATAIQNVVHRLFHASYGARRDAAKILIVITDGKKEGDSLDYKDVIPMADAAGIIRYAIGVGLAFQNRNSWKELNDIASKPSQEHIFKVEDFDALKDIQNQLKEKIFAIEG
As for B1, the figures for the Kd with complement fragment iC3b [1] and with complement fragment iC3b [2] were 1 µM and 1.06 µM, respectively.

B2: GST-αX I-domain K243S/E244H (domain or fragment)
chain: B1 chain with K116S, E117H
For B2, the Kd (commonly the free concentration of one partner at which half of the binding sites on the other are occupied at equilibrium, for simple one-to-one binding) with complement fragment iC3b [2] stood at 0.56 µM.

B3: GST-αX I-domain D249M (domain or fragment)
chain: B1 chain with D103M
B3 had a Kd with complement fragment iC3b [2] of 0.49 µM.

B4: GST-αX I-domain K242A/K243A (domain or fragment)
chain: B1 chain with K115A, K116A
With B4, in the test with complement fragment iC3b [2], the Kd is 2.89 µM. Against the preceding molecule, the Kd is about 5.9-fold higher.
